Assay results reported in the Immune Epitope Database (IEDB).

target: HLA-B*07:02; experiment: IEDB peptide-MHC binding, purified MHC/competitive/fluorescence; ≥ and ≤ were set here for values at or beyond the usual limits of such assays; conditions: source organism: Plasmodium falciparum

Row | Sequence | IC50 [µM]
1 | IPHYTFLDYY | ≥ 100

target: HLA-B*44:02; experiment: as above; conditions: source organism: Plasmodium falciparum

Row | Sequence | IC50 [µM]
2 | DEYIHKLIL | ≥ 100
3 | KEKHLNNIF | ≥ 100
4 | VQYFFLRPYI | ≥ 100
5 | YENKSLTHYL | ≥ 112
6 | KEMKHIFNRI | 39.2
7 | NDNNFAECY | ≥ 100
8 | KEIDNDKENI | ≥ 100
9 | EELQITQWI | 19.6
10 | NEKNDVKNN | ≥ 100
11 | GEEKRASHTT | 10
12 | SECDIGLIY | ≥ 100
13 | LEFVCSNRDF | 7.46
14 | NENNENNFL | ≥ 100
15 | NDVPIKMEYF | ≥ 100
16 | KEKFYKNNLY | ≥ 919
17 | NEIDKLTFSL | ≥ 332
18 | IEIVERSNY | 8.03
19 | FEWHTLSKEY | 19.1
20 | KDLSDMTNI | ≥ 100
21 | EEKDDIKNG | ≥ 100
22 | NEYSLFITS | ≥ 100
23 | VENNFPCSLY | 6.02
24 | KEYNNSEITI | 11
25 | EENYRCTQDI | ≥ 674

target: HLA-A*03:01; experiment: as above; conditions: source organism: Plasmodium falciparum

Row | Sequence | IC50 [µM]
26 | SILPDINKSK | 12.7
27 | NVNFLQYHFK | ≥ 100
28 | SIYHKSSTY | 5.93
29 | TLNDEYIVSY | ≥ 304
30 | PVATGNQYLK | ≥ 328
31 | NSYKEWISKK | 7.37
32 | RTFKKMMDEY | ≥ 100
33 | RTFQKDELLK | 24.2
34 | RLSHTDIHK | 1.74
35 | KLKYVTESLK | 3.34
36 | ATCKYGFNK | 4.75
37 | LSSYVSLPLK | 0.654
38 | FLDYYKHLSY | ≥ 100
39 | DLMNRTFKK | ≥ 100
40 | STCRFFVCK | 5.9
41 | GSYIYIDTIK | ≥ 70.8
42 | KMMDEYNTKK | 8.48

Row | Sequence | IC50 [µM]
43 | HTKIINDKTK | ≥ 73
44 | FVCSNRDFLK | ≥ 100
45 | KLNIWRTFQK | 2.5
46 | HLSYNSIYHK | 44.2
47 | CVCTYNYYKK | 14.4
48 | KVKSKCNDIK | 39.3
49 | FIPSHNSFIK | ≥ 100
50 | ILNNSKFNK | 0.42
51 | HIYVQKKVK | 0.897
52 | LICGVSPYK | 0.419
53 | SAFLPTGAFK | 0.345
54 | STCYGNRFNY | ≥ 100
55 | VENNFPCSLY | ≥ 85.4
56 | FISDDKDSLK | ≥ 697
57 | NSIYHKSSTY | ≥ 101
58 | KIFTFIENK | 0.467

target: HLA-A*02:01; experiment: as above; conditions: source organism: Plasmodium falciparum

Row | Sequence | IC50 [µM]
59 | KVKDSWITL | 4.01
60 | KMYSEFKSI | 1.02
61 | FLPTGAFKA | 1.39
62 | DMSNEYSLFI | ≥ 100
63 | FLQYHFKEL | 14.6
64 | FVLENGVCI | 4.17
65 | VQYFFLRPYI | ≥ 100
66 | YIYNQIIWKI | 1.95
67 | KRASHTTPV | ≥ 100
68 | YIFFNNENSI | 2.83
69 | AVLATILMV | 23.6
70 | CLINNSSYI | 3.82
71 | HLNNIFHHL | 0.225
72 | SVLNGNDNTI | ≥ 640
73 | FISDDKDSL | ≥ 336
74 | KLGVQYFFL | 0.805
75 | VLLLSAFEFT | ≥ 100
76 | NIFHHLIYV | 2.29

Row | Sequence | IC50 [µM]
77 | SMIKSAFLPT | 12.5
78 | SLIKQNKYV | 29.9
79 | YIYIDTIKFI | 53.1
80 | YLNTNVNDGL | 2.83
81 | FIPSHNSFI | 31
82 | NLFSSIEIV | 1.55
83 | YMGNPWTEYM | 21.4
84 | KMMDEYNTKK | ≥ 511
85 | YIHKLILSV | 1.15
86 | YLNKYVYTI | 0.342
87 | RQMLYNTFYS | ≥ 319
88 | VLNGNDNTI | 7.31
89 | KLPLESSTI | 2.12
90 | ILDMSNEYSL | 6.87
91 | KINETYDKV | 10.1
92 | YVGDNINNV | 1.82
93 | SLFITSDHL | 7.12
94 | FQYNDDASI | 0.275
